# In article doi:10.1101/2021.11.20.466133:
# What was measured:
# [1] = target: MsDisA_(1-158) (only N-terminal domain-1) (Mycobacterium smegmatis mc2155); experiment: SEC-MALS
# [2] = target: MsDisA_(1-316) (domains 1 and 2) (Mycobacterium smegmatis mc2155); experiment: SEC-MALS
# [3] = target: MsDisA_(132-372) (domains 2 and 3) (Mycobacterium smegmatis mc2155); experiment: SEC-MALS
# [4] = target: Mycobacterium smegmatis DNA integrity scanning protein (MsDisA), c-di-AMP synthase (Mycobacterium smegmatis mc2155); experiment: SEC-MALS
# [5] = target: Mycobacterium smegmatis DNA integrity scanning protein (MsDisA), c-di-AMP synthase (Mycobacterium smegmatis mc2155); experiment: negative-stain TEM
# [6] = target: Mycobacterium smegmatis DNA integrity scanning protein (MsDisA), c-di-AMP synthase (Mycobacterium smegmatis mc2155); experiment: cryo-EM structure
substance,measurement,setting,value
MsDisA_(1-158) (only N-terminal domain-1) (domain or fragment),stoichiometry N,[1],8
MsDisA_(1-316) (domains 1 and 2) (domain or fragment),stoichiometry N,[2],8
MsDisA_(132-372) (domains 2 and 3) (domain or fragment),stoichiometry N,[3],2
"Mycobacterium smegmatis DNA integrity scanning protein (MsDisA), c-di-AMP synthase (enzyme)",stoichiometry N,[4],8
same,stoichiometry N,[5],8
same,stoichiometry N,[6],8
